Assay: soluble fraction after stress (log2 fold change); higher = more stays soluble; pooled small domains, quantitative proteomics
Conditions: stress: pH 4
Summary of the method: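 Aggregation propensity is estimated from the fold change in each domain's soluble amount after acid stress. Pooled small-domain libraries were stressed at pH 4, and higher log2 values mean more stayed soluble.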

Row | Sequence | soluble fraction (log2)
1 | HMGELGPGSRGQAVRALQERLMALGFPLARFGADGIFGRETTGALRAFQHVAGLSPTGLGDHETLKWLGII | -0.351
2 | HMKKYLIIDAANEKIIFKIIDNNKTYTNDYENSRKNFDRFAVLLFNFLNKNMISFDTIDKAL | -0.19
3 | HMGQEEKDIFLKLINISGIGPKLALNILSGIEASELEEAVRNTNVTRLSMVPGIGQKTALRIIMELSDKLE | -0.881
4 | HMRRQRNPEIFDQLVNKFHFTFTQTQQLKQLIKRWHMLFPGKSLKSAIQGYKSAKEILTYINDSLDVVE | 0.0668
5 | HMEHIDVSGRAFDVSVSRLKRARRLTMRIDTHKQLVKISAPLHVESSTIRAFLARNQNWLEQQVEKR | 0.199
6 | HMGQARQSAIRELGNDPTSGKKITVRSGRYGPYVTDGEVNASLRKGDDPQTIDLDRAIELLAARREKLG | -0.324
7 | HMVTIEEMMDRLLTRVQRAVNMSFSEFSGEAKEKVEVIVSFLALLELVKQGAVDVLQHENFSDIRIENT | -0.841
8 | HMNYIGADAAKNMAAADAQVDTANASFSGANLGEKNGLSYYQVDFTANGREYHYAIDAMTGTVIESSSAAS | -0.0522
9 | HMRPQELSSLNTNQMRLYNSLPEAFITAEAKDIADKLRYSERSLFRFLNESNLFTKTEHGSYAKKA | -0.585
10 | HMTLLVPASKEAILGGLAKIDALKVILKPEKDYSKTHAMTIGTKDEVIAKLDSFLSGMDSEKNQVLIQEYM | -0.135
11 | HMRPIWVQLADDFRHRIVSGQWPPGSKIPSVRELAAETGVNPNTVQRALGALDGEGLTATERTAGRFVTT | -0.0115
12 | HMKTGIGIVEANGGLRLRSQASTSSDVLSTAHNGDNVVVIRQVGNWYLVNYNLKIGYMHSDYITFKE | -1.3
13 | HMEDSEYDRLLAEIDEGIRKAIETLEPVELSPQNARVRRIQHQIIEKYQLHSDSVGEEPYRRVRIL | -1.03
14 | HMFISVDGLIHMGRTHLVILGGVEFARGDMIPETGEVVKSIGADSVVLELPDTGMRRTLNFV | -1.91
15 | HMAEVDREEALRIALAHAAVARRDVRNLKIERGEENGVPVYKVEFETAFGDFDVAVSRRSGDVVDAD | -0.0548
16 | HMNQRQKQLLSILEQQGDWMKGKALATLLAVSDRTIRSDIEKINREVEGSILSHPHKGYLLSVENRQIAET | 0.0959
17 | HMDPNAITSAQVTKLQVLANEKGFAERQARLTMWAEVIGRNVGTANELTKAEAHKLIEHMDALPV | -0.162
18 | HMGLPLETVVTHATKLEIVRDGRVSGSIGLSAGVKVDVIALEGDNLQVRYRSLSGRVPVAHTGLAALA | -0.533
19 | HMKELLQEMIMDILRAIASPNIDIKRKTLDLVLDLITPRNIDNVTGMLKTEVVKSQSENTSDVG | -0.572
20 | HMKRQATLQIGSKRFGMDDLYFKFTVPFEDSEKLGTATIEAYNLSPATRNSIKKGMPIILNAGYEGDI | -0.103
21 | HMDEVLDQFVRGQIYGYIRANPGDIYSSIRDNLGLKNGVTTYHLDVLAREEYVYSEIDGTNRRFYPSGWEE | -2.23
22 | HMSKPLEVFKLTSEPFGFSFNTALGRSYTVEATGDLGVWKAVELFQGSGGEIRFTAKPTSSGGAQFFRVFV | -0.225
23 | HMSKTQYTFREVGSQFELHAPSTNHKIMVDANHPKYGWLSSQEAGRVINVYESGKMTSSQDYYGLYKQS | -0.427
24 | HMGVSAGQVRGLIRNLIAGEDKSKPLSDLALERELEKREIRISRRTVAKYRAELGIPNSDQRRYLP | 0.0779
25 | HMGMMTLGQRIAQYRKAMGISQEELGGRLGVSRQAVSKWETDAAAPDMENLLALAREFGVSVAELTETP | -0.11

Row | Sequence | soluble fraction (log2)
26 | HMESVDRIYERVRRYADDVGTAKIPMKELDDDGPLGTAVSRIRERRKRGELTEEWEARFETLPGWTWAA | -0.265
27 | HMENLTLVIGNKLKNIRNSRNLSLDDVAELTGVSKAMLGQIERGKSNPTVSTLWKISTGLRVSFSSFIDE | -0.249
28 | HMGSYIGEAKAKEIALSHAGVSASQATFVRSQFEYDDGRAVYDVDFWSGNKEYDYEIDAKSGTIVSYDFD | 0.0669
29 | HMSSTSTKTQNIVHIVKSGETLSAIASKYGVSVDNIKKWNNLSSDKLSIGQKLKINPTTQTSS | -0.186
30 | HMTFAPTAIPSLTRPMEELMSWSFTPNEAFILSRINGLWDVRSIAKISPFPEGEVLRVFEKLHDGGLIRW | -1.54
31 | HMEKPTRNKLVEIIIQNKNVTTEQMANLLNISRRAVAKHIKKLQEEGIIRRIGPDFGGHWEIVK | 0.225
32 | HMDTIGSKVLAFLAGNLLDPTPFNYRFGYLYLNRTSKVIVEETDTYIDSGMRMTQEAVAEIMQKFAQ | -2.74
33 | HMSAEVMLRRLIDENDPSSENARYILAVMLERKKILAPVDVKNEKKSKMLFYEHQKTGEAFIVRDP | -0.17
34 | HMSQAVTMLKAGRLLANSKGTGAAVRDLEPGMLLYPTGQKDGTMWEVEDEMGNKGWVNSTSMQLA | 0.395
35 | HMAPDGIEDKEGWLKVLPMITNLSIQMQNLQARGMDYEHIRNLLHETLLRYDDRIDSNLFIPNV | -0.198
36 | HMKEILTNESIIQFVKDKVSEEQIIYKINNSPIDFKLDVNSMVSLAKQNVSSTIIIAMENAMNN | -0.522
37 | HMEQYYVFFAGGMTIGTKEWYESILPENIATSYDDILEGKMMPASLEQIEFYNSHKDYDLYHLFYML | -1.4
38 | HMAPMYGEFENVRLTDAQLDKLNARFPPEQVQREIEALSGYMRSKGKRYADHYATLLNWLRRDFPP | -0.112
39 | HMSSDLLGVRVRRARARAGLTRRRLSLLSGVSERFLAQLESGQGNISIVLIRRVAAALGAELVELIGS | -0.0528
40 | HMDEAAGVLTQLRAFIAASNLSPGLRLPPERELAEQLGVTRAELRKALAVLEAEGLLWRQVGKGTFYGARP | -0.523
41 | HMTRPLVILEDVKFPSYNEIVSLTLPDGTRRGGQVLEVSGNKAIVQVFEGTSGIDVKDTHIELTKSS | 0.0449
42 | HMAENTIPSVIGKTLSDATFLLESYGYERGGVSEEYSEMPKGVVIRQSPQAGSSADPGTKVNLVVSLGEEI | -0.692
43 | HMRHLSVPSQDTQQVLQRLKVELALPEGARVRSDPSDPGRRLIPFTESVPQEMIDQYPVVSINI | -0.458
44 | HMAENTKKWDETGRRYRSYIKLEKRLSENTVESYMRDYMQFAHFILRQWDVAPHKVEPQMVERYMAWLYER | -0.806
45 | HMDVNKDLLGETLEKAKSYKADDWRKASYEALQKAIVEAEAVYKDEEADQVAVDRKVAALNKAINNLEAKG | 0.241
46 | HMEGLDDKTKIILFAGDKKEQEYSLADLKSKLNITENLTESELIKLLEKQGYVLDVNANNEFMFKKD | 0.22
47 | HMGSFDDAPDQLRQSILQLLAEGPLPPSAITERLNISREDATEALQQLLDEQRIFAVNGMLQLQPG | -0.538
48 | HMQDFEEILKNAKIEDFKHTQTGEDLKVLKIEDKIEDFKGFNAYLVKNQIAYYSKFARGFVVKNIEKLQGV | 0.155
49 | HMNAIYKFVLGMIGKRSGVVTTLPSKKQVEFQANMLAEKFMQNGIDPNALKSPEQVKNVLANIDQ | 0.01
50 | HMAEMRYLDQIYEVNVPLPDLSLEDGDLLARWAVNFHQRYEELFSYRQSDQEIRLVTLRVTVLGELP | -1.67

Row | Sequence | soluble fraction (log2)
51 | HMRAVFEQLRIGQTLAGVVKAQEKGFSLVEIDGQTVAMRLPHPAAVGDTLRLRFAGHMPQAVFLLES | -0.178
52 | HMKAPDSQYKPLTDFQTDASFQKLDAYLRNRYPAMLANAVVYDVLRTPDAISYRVNYQVDNKMITINAAVT | 0.157
53 | HMEVVRVEPGATVRDLGEALGVPPTRIIQILMGLGEMKTVTQTLSTEEIELVAEELGRRVEV | -0.248
54 | HMNQSKYQTIADELKSKILSGEYPENTTIPPELQLQKDYQVSRHTIRQAIALLANEGFLRKEKGSGTYVDV | 0.254
55 | HMADQVLVMTRAVGQGDIVRNADIGLTSVAVDRAVATIPASQLDKIVGRHALVDLSPGQLLGSHSVGE | 0.107
56 | HMSTLSIHIPDKFAGQRLDQALAELYSQFSRSRLQQWLNDGELLVDGKSVKANKKVLGGEFIQILK | -0.00612
57 | HMEPEVEITYFKPDERKAGGAYVTVTGAVIKVDDFERLITMQDGTKIPMDDILSIDGELFLS | -1.08
58 | HMIVVMQPGATKEQVQAVIDRVAEFGFQTKLAPGAERMVIGVVGSPLPDTLKEALERLPGVEEVIRVSKR | -0.0989
59 | HMLVSPLDEIPGIGRNRKKTLLNHFGSAKTIEGASLEDLKKVDGISELIAKKIYNYFHLNKNF | 0.104
60 | HMGTRPIQIASFSKEENAKRAVEALAKIGITAQPQKSGSATKAVWGVVANGDADLLAKIKAAGFADAYFL | 0.179
61 | HMDSVSAVRTTHLNSYVLLLEKDGMAAATISRYIASMKGFFEYLFREHMIEEDPAFTLKPPKV | 0.0461
62 | HMAGITLHAEEGRVRIRSQSEGLVKVLDAMGREQASWPLRSKGWWFFLTEGWAPGTYFVKTESGETQRFLV | 0.215
63 | HMEQKISVPALVGRDIEEILADTEVTGNFTIKEADKRVASNRPVGEVLEQDPGTGESAVKGTIITVTVSAG | -0.353
64 | HMETWDQAYETIKQNILNLTYPPGMPLTEAKLAEELGMSRSPVRTALRMLQTDGLIVTDYYKSMTVKEI | -2.07
65 | HMLDGFEVGMTVMRKPGTETGFTGWPPFADKDEFPVIERIDTSDSTLLLRFNDTSWWINASLVEPSDV | -0.729
66 | HMSLDAAAVASKLIKRLSKSPGRRFALDDLAVDVGLPHEQGRPLVRSALELLVRTQQAVEGPPNVFRLFF | -0.17
67 | HMIEQIELEARVPDELGGQRLDQVAAQMFDDFSRSRLTGWIRDGSLTADGQQLRPRDIVYGGTLLQLKAEQ | -0.151
68 | HMAVSDAAEEYGKAGTPLVILAGKEYGSGSSRDWAAKGPYLQGVRAVLAESYERIHRSNLVGMGIVPLTYK | 0.109
69 | HMDRYAVRAEELAAALAQYHRHVGVYPENLEDLIAPTGPRGYRGPYLSELPTNPSTSKPDWGYDPATGRVS | 0.159
70 | HMKNNYQYIVDQIKQLILDGELIVGDRLPSERDLSEMYQVSRASVREALKALETIGLLESRHGGGNYIVNH | -0.68
71 | HMQILVEGVEANQRLDLFLRARLTEFSRSRIQGLVKNGNVLVNGNIARQAYLVQVGDKIELDVPEPVA | 0.112
72 | HMDVLDVADNVNDDMSFADAFAAARSEVGAGGIFYWHGKAYGTYYENEWAGMSEEDKADYWDAVARTTS | -0.779
73 | HMSNLNHSFQYKKNIGRKISLTYLGRDNESISKIYELIDSNDSGILVKNKNVEIFIHYEKIVSAKIKVS | -0.213
74 | HMNSTSGIAGVGYWINQYRKKKGMSPVDKKSPLVRRVYDWVQEQYDEGRITIISDAELTRQTELAMEA | 0.0383
75 | HMAIKTGAVTGHGVKVRKGPSTNEKAIHDVLYGSRLQILEEKNGFLKAKFEDGTTGWISKQFVTTTDKNLL | -0.0244

Reference: the domain aggregation screens of Martell et al. (2025)
